Data: article PMC9860126, “Mechanistic insights into the nickel-dependent allosteric response of the Helicobacter pylori NikR transcription factor”

Tests used:
Experiment in all cases: fluorescence anisotropy; Ni(II)-bound; FA: 5 nM DNA, 20 mM Tris pH 7.6, 100 mM NaCl, 3 mM MgSO4, temperature not stated (Ni loading 1.2 eq NiSO4 per monomer at RT). EMSA: 20 mM Tris pH 7.5, 100 mM KCl, 3 mM MgCl2, 0.1% IGEPAL, 5% glycerol, 0.1 mg/ml herring sperm DNA, RT; gel with 800 uM NiSO4 at 4 C
Conditions in all cases: protein: recombinant; tags: none stated; chain copies: 4; label: fluorescein on internal thymine (T14 of strand 1); blunt
HpNikR K64A = HpNikR K64A (Helicobacter pylori G27, UniProt A1YSQ9 1-148, K64A)
HpNikR I127A = HpNikR I127A (Helicobacter pylori G27, UniProt A1YSQ9 1-148, I127A)
HpNikR GGS = HpNikR GGS (Helicobacter pylori G27, UniProt A1YSQ9 1-148, P59G;N60G;D61S)

B1: ureA promoter 32 bp (FA) (dsDNA)
DNA 1: ATATAACACTAATTCATTTTAAATAATAATTA
DNA 2: TAATTATTATTTAAAATGAATTAGTGTTATAT
HpNikR K64A
  Kd: 22 ± 2.2 nM
HpNikR I127A
  Kd: 8.7 ± 1.3 nM
HpNikR GGS
  Kd: 4.6 ± 1.2 nM
